Measurements reported in IntAct's records for PubMed 31515488.

B1: Transcription factor 19 (Homo sapiens), Q9Y242 (parent)
chain: MLPCFQLLRIGGGRGGDLYTFHPPAGAGCTYRLGHRADLCDVALRPQQEPGLISGIHAELHAEPRGDDWRVSLEDHSSQGTLVNNVRLPRGHRLELSDGDLLTFGPEGPPGTSPSEFYFMFQQVRVKPQDFAAITIPRSRGEARVGAGFRPMLPSQGAPQRPLSTFSPAPKATLILNSIGSLSKLRPQPLTFSPSWGGPKSLPVPAPPGEMGTTPSAPPQRNRRKSVHRVLAELDDESEPPENPPPVLMEPRKKLRVDKAPLTPTGNRRGRPRKYPVSAPMAPPAVGGGEPCAAPCCCLPQEETVAWVQCDGCDVWFHVACVGCSIQAAREADFRCPGCRAGIQT
partner: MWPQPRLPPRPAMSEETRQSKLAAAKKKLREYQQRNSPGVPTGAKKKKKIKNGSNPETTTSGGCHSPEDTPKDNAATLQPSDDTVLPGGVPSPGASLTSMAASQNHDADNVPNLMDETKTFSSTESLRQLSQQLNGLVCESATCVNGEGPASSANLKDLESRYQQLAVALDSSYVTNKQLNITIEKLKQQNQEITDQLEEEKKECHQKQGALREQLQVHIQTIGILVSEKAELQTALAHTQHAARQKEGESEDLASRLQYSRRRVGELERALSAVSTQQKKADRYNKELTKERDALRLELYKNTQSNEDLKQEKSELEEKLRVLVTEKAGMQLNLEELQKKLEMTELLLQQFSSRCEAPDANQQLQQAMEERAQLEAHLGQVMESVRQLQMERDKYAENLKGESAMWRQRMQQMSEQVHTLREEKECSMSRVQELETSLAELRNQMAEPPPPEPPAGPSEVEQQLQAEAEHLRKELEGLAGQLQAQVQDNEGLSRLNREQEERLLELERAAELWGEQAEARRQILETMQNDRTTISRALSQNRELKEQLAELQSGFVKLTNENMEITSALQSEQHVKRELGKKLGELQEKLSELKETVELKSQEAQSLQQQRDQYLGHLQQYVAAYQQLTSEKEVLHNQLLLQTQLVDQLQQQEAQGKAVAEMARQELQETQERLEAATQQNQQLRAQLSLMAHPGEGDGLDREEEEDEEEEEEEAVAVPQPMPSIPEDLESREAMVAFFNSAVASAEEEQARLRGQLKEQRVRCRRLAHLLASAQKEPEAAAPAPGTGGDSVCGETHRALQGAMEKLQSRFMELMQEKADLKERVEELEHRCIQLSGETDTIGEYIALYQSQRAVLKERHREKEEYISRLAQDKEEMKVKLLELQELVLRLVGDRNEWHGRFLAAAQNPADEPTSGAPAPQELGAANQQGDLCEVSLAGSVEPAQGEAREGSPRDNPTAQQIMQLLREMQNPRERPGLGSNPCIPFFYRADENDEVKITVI
B2: Microtubule-associated tumor suppressor candidate 2 (Homo sapiens), Q5JR59-3 (parent)
chain: MGHCCCKPYNCLQCLDKTNESALVKEKELSIELANIRDEVAFHTAKCEKLQKEKEELERRFEDEVKRLGWQQQAELQELEERLQLQFEAEMARLQEEHGDQLLSIRCQHQEQVEDLTASHDAALLEMENNHTVAITILQDDHDHKVQELMSTHELEKKELEENFEKLRLSLQDQVDTLTFQSQSLRDRARRFEEALRKNTEEQLEIALAPYQHLEEDMKSLKQVLEMKNQQIHEQEKKILELEKLAEKNIILEEKIQVLQQQNEDLKARIDQNTVVTRQLSEENANLQEYVEKETQEKKRLSRTNEELLWKLQTGDPTSPIKLSPTSPVYRGSSSGPSSPARVSTTPR
partner: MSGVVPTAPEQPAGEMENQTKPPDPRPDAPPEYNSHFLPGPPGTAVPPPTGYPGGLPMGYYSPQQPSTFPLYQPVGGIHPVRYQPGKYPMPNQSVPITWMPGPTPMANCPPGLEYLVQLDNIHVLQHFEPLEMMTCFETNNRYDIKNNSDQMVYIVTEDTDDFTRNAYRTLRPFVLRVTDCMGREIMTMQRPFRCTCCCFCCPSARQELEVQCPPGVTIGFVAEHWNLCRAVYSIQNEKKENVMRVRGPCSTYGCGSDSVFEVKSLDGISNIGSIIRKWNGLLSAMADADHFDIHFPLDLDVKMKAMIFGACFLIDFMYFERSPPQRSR
B3: Antiviral innate immune response effector IFIT1 (Homo sapiens), P09914 (parent)
chain: MSTNGDDHQVKDSLEQLRCHFTWELSIDDDEMPDLENRVLDQIEFLDTKYSVGIHNLLAYVKHLKGQNEEALKSLKEAENLMQEEHDNQANVRSLVTWGNFAWMYYHMGRLAEAQTYLDKVENICKKLSNPFRYRMECPEIDCEEGWALLKCGGKNYERAKACFEKVLEVDPENPESSAGYAISAYRLDGFKLATKNHKPFSLLPLRQAVRLNPDNGYIKVLLALKLQDEGQEAEGEKYIEEALANMSSQTYVFRYAAKFYRRKGSVDKALELLKKALQETPTSVLLHHQIGLCYKAQMIQIKEATKGQPRGQNREKLDKMIRSAIFHFESAVEKKPTFEVAHLDLARMYIEAGNHRKAEENFQKLLCMKPVVEETMQDIHFHYGRFQEFQKKSDVNAIIHYLKAIKIEQASLTRDKSINSLKKLVLRKLRRKALDLESLSLLGFVYKLEGNMNEALEYYERALRLAADFENSVRQGP
partner: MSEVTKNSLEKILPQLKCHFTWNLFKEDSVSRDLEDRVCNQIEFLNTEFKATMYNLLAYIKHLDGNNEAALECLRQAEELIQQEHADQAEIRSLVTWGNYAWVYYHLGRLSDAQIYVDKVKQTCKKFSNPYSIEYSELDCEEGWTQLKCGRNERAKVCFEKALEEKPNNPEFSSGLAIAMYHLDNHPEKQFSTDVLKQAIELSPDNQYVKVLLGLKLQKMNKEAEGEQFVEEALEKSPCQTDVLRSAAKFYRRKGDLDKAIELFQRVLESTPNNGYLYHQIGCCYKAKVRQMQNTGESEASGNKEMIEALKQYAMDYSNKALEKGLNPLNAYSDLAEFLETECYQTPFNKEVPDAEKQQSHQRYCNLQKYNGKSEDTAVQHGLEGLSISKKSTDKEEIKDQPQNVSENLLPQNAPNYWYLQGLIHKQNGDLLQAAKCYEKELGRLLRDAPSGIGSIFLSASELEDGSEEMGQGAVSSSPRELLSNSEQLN
B4: Notch homolog 2 N-terminal-like protein A (Homo sapiens), Q7Z3S9 (parent)
chain: MCVTYHNGTGYCKCPEGFLGEYCQHRDPCEKNRCQNGGTCVAQAMLGKATCRCASGFTGEDCQYSTSHPCFVSRPCLNGGTCHMLSRDTYECTCQVGFTGKECQWTDACLSHPCANGSTCTTVANQFSCKCLTGFTGQKCETDVNECDIPGHCQHGGTCLNLPGSYQCQCLQGFTGQYCDSLYVPCAPSPCVNGGTCRQTGDFTFECNCLPETVRRGTELWERDREVWNGKEHDEN
partner: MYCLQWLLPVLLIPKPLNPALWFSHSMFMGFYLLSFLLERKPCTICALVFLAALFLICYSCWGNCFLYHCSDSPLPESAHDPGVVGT
B5: Four and a half LIM domains protein 2 (Homo sapiens), Q14192 (parent)
chain: MTERFDCHHCNESLFGKKYILREESPYCVVCFETLFANTCEECGKPIGCDCKDLSYKDRHWHEACFHCSQCRNSLVDKPFAAKEDQLLCTDCYSNEYSSKCQECKKTIMPGTRKMEYKGSSWHETCFICHRCQQPIGTKSFIPKDNQNFCVPCYEKQHAMQCVQCKKPITTGGVTYREQPWHKECFVCTACRKQLSGQRFTARDDFAYCLNCFCDLYAKKCAGCTNPISGLGGTKYISFEERQWHNDCFNCKKCSLSLVGRGFLTERDDILCPDCGKDI
partner: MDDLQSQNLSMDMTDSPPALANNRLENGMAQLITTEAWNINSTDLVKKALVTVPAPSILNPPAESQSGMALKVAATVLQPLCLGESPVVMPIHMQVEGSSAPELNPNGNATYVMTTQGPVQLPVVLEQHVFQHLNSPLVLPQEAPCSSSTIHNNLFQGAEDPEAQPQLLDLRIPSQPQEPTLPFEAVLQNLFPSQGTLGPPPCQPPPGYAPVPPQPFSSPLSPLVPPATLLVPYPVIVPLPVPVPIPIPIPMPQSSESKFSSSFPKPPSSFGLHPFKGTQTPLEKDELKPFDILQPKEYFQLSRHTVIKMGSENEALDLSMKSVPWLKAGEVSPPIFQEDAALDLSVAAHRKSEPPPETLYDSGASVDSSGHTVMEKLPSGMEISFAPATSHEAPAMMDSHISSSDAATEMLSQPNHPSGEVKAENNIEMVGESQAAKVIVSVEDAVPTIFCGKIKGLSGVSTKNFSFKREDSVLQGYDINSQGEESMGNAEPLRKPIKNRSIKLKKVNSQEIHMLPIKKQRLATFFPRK
B6: E3 ubiquitin-protein ligase SH3RF2 (Homo sapiens), Q8TEC5 (parent)
chain: MDDLTLLDLLECPVCFEKLDVTAKVLPCQHTFCKPCLQRVFKAHKELRCPECRTPVFSNIEALPANLLLVRLLDGVRSGQSSGRGGSFRRPGTMTLQDGRKSRTNPRRLQASPFRLVPNVRIHMDGVPRAKALCNYRGQNPGDLRFNKGDIILLRRQLDENWYQGEINGISGNFPASSVEVIKQLPQPPPLCRALYNFDLRGKDKSENQDCLTFLKDDIITVISRVDENWAEGKLGDKVGIFPILFVEPNLTARHLLEKNKGRQSSRTKNLSLVSSSSRGNTSTLRRGPGSRRKVPGQFSITTALNTLNRMVHSPSGRHMVEISTPVLISSSNPSVITQPMEKADVPSSCVGQVSTYHPAPVSPGHSTAVVSLPGSQQHLSANMFVALHSYSAHGPDELDLQKGEGVRVLGKCQDGWLRGVSLVTGRVGIFPNNYVIPIFRKTSSFPDSRSPGLYTTWTLSTSSVSSQGSISEGDPRQSRPFKSVFVPTAIVNPVRSTAGPGTLGQGSLRKGRSSMRKNGSLQRPLQSGIPTLVVGSLRRSPTMVLRPQQFQFYQPQGIPSSPSAVVVEMGSKPALTGEPALTCISRGSEAWIHSAASSLIMEDKEIPIKSEPLPKPPASAPPSILVKPENSRNGIEKQVKTVRFQNYSPPPTKHYTSHPTSGKPEQPATLKASQPEAASLGPEMTVLFAHRSGCHSGQQTDLRRKSALGKATTLVSTASGTQTVFPSK
partner: B1 partner
B7: Proteasome inhibitor PI31 subunit (Homo sapiens), Q92530 (parent)
chain: MAGLEVLFASAAPAITCRQDALVCFLHWEVVTHGYFGLGVGDQPGPNDKKSELLPAGWNNNKDLYVLRYEYKDGSRKLLVKAITVESSMILNVLEYGSQQVADLTLNLDDYIDAEHLGDFHRTYKNSEELRSRIVSGIITPIHEQWEKANVSSPHREFPPATAREVDPLRIPPHHPHTSRQPPWCDPLGPFVVGGEDLDPFGPRRGGMIVDPLRSGFPRALIDPSSGLPNRLPPGAVPPGARFDPFGPIGTSPPGPNPDHLPPPGYDDMYL
partner: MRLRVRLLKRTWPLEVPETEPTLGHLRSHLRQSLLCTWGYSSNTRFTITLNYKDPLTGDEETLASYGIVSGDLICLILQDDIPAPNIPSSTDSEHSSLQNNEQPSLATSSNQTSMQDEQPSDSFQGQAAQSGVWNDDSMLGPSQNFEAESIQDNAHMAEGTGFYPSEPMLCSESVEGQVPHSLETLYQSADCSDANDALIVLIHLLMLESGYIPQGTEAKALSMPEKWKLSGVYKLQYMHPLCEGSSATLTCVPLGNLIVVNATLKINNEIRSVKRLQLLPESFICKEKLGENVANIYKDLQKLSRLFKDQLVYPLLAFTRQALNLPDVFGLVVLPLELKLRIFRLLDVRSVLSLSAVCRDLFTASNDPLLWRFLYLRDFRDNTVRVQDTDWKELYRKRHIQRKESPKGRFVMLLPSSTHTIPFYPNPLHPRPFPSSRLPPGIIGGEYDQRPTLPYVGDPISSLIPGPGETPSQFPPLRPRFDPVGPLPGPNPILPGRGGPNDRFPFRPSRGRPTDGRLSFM
B8: Protein LDOC1 (Homo sapiens), O95751 (parent)
chain: MVDELVLLLHALLMRHRALSIENSQLMEQLRLLVCERASLLRQVRPPSCPVPFPETFNGESSRLPEFIVQTASYMLVNENRFCNDAMKVAFLISLLTGEAEEWVVPYIEMDSPILGDYRAFLDEMKQCFGWDDDEDDDDEEEEDDY
partner: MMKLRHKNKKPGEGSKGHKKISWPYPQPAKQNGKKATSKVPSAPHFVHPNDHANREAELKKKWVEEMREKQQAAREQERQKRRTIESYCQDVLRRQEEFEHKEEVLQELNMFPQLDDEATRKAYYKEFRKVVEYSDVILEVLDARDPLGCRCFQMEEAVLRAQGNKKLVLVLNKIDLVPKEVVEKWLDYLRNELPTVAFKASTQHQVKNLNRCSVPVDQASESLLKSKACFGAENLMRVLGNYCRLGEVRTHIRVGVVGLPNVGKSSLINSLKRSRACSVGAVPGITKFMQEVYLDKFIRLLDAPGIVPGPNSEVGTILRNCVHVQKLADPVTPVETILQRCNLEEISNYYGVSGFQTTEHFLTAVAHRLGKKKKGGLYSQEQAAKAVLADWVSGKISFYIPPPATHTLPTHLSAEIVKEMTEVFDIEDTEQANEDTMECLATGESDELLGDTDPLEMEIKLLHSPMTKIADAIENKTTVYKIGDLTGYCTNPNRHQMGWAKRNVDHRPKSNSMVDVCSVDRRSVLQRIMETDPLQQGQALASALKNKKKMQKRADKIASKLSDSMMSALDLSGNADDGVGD

Variants of: B1
Settings: with goga2_human GOLGA2, Q08379
For A279V, the “effect of a mutation on the interaction” value was “with no effect”.

Variants of: B2
Settings: with pls4_human PLSCR4, Q9NRQ2
For A89V, the “effect of a mutation on the interaction” value was “with no effect”.

Variants of: B3
Settings: with ifit3_human IFIT3, O14879
In the case of A162T, the “effect of a mutation on the interaction” value is reported as “with no effect”.
For M453T, the “effect of a mutation on the interaction” value was “with no effect”.

Variants of: B4
Settings: with blcap_human BLCAP
For A115T, the “effect of a mutation on the interaction” value was “with no effect”.
R74Q was tested, and the “effect of a mutation on the interaction” value was “with no effect”.

Variants of: B5
Settings: with rai2_human RAI2, Q9Y5P3
In the case of A37S, the “effect of a mutation on the interaction” value is reported as “with no effect”.
With N95K the “effect of a mutation on the interaction” value was “with no effect”.

Variants of: B6
Settings: with goga2_human GOLGA2, Q08379
In the case of V687I, the “effect of a mutation on the interaction” value is reported as “with no effect”.

Variants of: B7
Settings: with fbx7_human FBXO7, Q9Y3I1
In the case of V192A, the “effect of a mutation on the interaction” value is reported as “with no effect”.

Variants of: B8
Settings: with gnl3l_human GNL3L
For L12H, the “effect of a mutation on the interaction” value was “disrupting interaction strength”.
